According to US11319366B2, “Antibody facilitating programmed necrosis of cells and application thereof” (SHANGHAI JW INFLINHIX CO., LTD., priority 2015, dated 2022):
Entries after “also recorded” stand apart in the source; their conditions may differ.

What was measured:
[1] = tested on: L929 cells; test: Apoptosis and necrosis assay (live/dead staining, active caspase-3, flow cytometry) in L929 cells; type: cell-based, mouse
Protocol: (§1) The cells were stained with live/dead cell staining kits (Invitrogen, Paisley, UK) instructed by the manufacturer's manual and fixed using cytofix/cytoperm fixation/permeabilization solution kits (BD Pharmingen, Oxford, UK). This was followed by intracellular staining with FITC-conjugated anti-caspase-3 antibody (Cell Signaling Technology, Danvers, Mass., USA). Cells were acquired on a CyAn flow cytometer (Beckman Coulter, Fullerton, Calif.) and data were analyzed using Flowjo (Tree Star Inc. Ashland, Oreg.).

[2] = tested on: TNF receptors on L929 cells; test: L929 cells immunofluorescence (confocal) microscopy of TNF/antibody binding to TNF receptors; type: cell-based, mouse
Protocol: The cells were fixed with 4% paraformaldehyde (in PBS) for 10 min, blocked in a phosphate-buffer containing 0.5% BSA and 0.1% cold water fish-gelatin for 15 min and subsequently incubated with rabbit anti-TNFR1 antibodies (Abcam) for 1 hour. The cells were extensively washed in PBS and then incubated with the relevant secondary antibodies, which were conjugated with Alexa Fluor 488 or Alexa Fluor 568 21 (Invitrogen). PBS-washed specimens were then mounted in Gelvatol/DABCO (Sigma-Aldrich). DNA was counterstained with DAPI (Sigma-Aldrich). All samples were analyzed by fluorescent microscopy using a Nikon Eclipse 80i at 60×. Images were acquired with NIS-Elements AR3.0 software using a Hamamatsu camera.

[3] = tested on: C28I2 cells (chondrocytes); test: Apoptosis assay (active caspase-3) in C28I2 cells; type: cell-based, human; details: C28I2 cells stimulated by TNF
Protocol: as §1

[4] = biological target: T1, TNF (Homo sapiens, UniProt P01375); test: ELISA screening of monoclonal antibodies for binding to TNF; details: among 33 monoclonal antibodies
T1 construct: purchased Immunotools (Germany)
T1 sequence (P01375 77-233 limits assumed): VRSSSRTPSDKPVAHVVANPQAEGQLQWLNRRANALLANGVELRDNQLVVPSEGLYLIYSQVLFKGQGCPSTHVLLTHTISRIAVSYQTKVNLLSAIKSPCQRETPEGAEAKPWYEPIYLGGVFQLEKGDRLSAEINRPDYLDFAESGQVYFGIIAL
Protocol: A second antibody conjugated with HRP was used to detect the reaction. For the inhibition assay, TNFR1 or synovial fluids were added together with monoclonal antibodies.

[5] = biological target: T1, TNF; test: Identification of binding epitope of the monoclonal antibody

| Molecule | effect on necrosis caused by 244-12+TNF ([1]; L929 cells, added into 244-12+TNF) | effect on binding of TNF to TNF receptors ([2]; confocal microscopy, in the presence of TNF) | direct binding of antibody to cell surface ([2]; in the absence of TNF) | TNF-induced apoptosis (active caspase-3 expression) [3] | binding to TNF by ELISA [4] | TNF-induced apoptosis (active caspase-3 expression) ([1]; L929 cells stimulated by TNF) | cell fate (apoptosis / survival / necrosis) of L929 cells ([1]; L929 cells, TNF alone or antibody added with TNF) | binding epitope [5] |
| --- | --- | --- | --- | --- | --- | --- | --- | --- |
| CN1C(=O)C(Cc2c[nH]c3ccccc23)NC1=S (centres unmarked) [Nec-1, Necrostatin-1, reference compound] | cell necrosis was conversed into apoptosis; also recorded: cell necrosis transformed into apoptosis | – | – | – | – | – | – | – |
| 244-12: anti-TNF monoclonal antibody specifically binding QLVVPSE; light chain SEQ ID NO: 10, heavy chain SEQ ID NO: 21 (antibody, listed as Homo sapiens) heavy: QIQLVQSGPELKKPGETVKISCKASGYTFTNYGMNWVKQAPGKGLKWMGWINTYTGEPTYADDFKGRFAFSLETSANTAYLQINNLRNEGMATYFCARHYRYAWFPYWGQGTLVTVSAAKTTPPSVYPLAPGCGDTTGSSVTLGCLVKGYFPESVTVTWNSGSLSSSVHTFPALLQSGLYTMSSSVTVPSSTWPSQTVTCSVAHPASSTTVDKKLEPSGPISTINPCPPCKECHKCPAPNLEGGPSVFIFPPNIKDVLMISLTPKVTCVVVDVSEDDPDVQISWFVNNVEVHTAQTQTHREDYNSTIRVVSTLPIQHQDWMSGKEFKCKVNNKDLPSPIERTISKIKGLVRAPQVYILPPPAEQLSRKDVSLTCLVVGFNPGDISVEWASNGHTEENYKDTAPVLDSDGSYFIYSKLNMKTSKWEKTDSFSCNVRHEGLKNYYLKKTISRSPGK light: DIQMTQSPASLSASVGETVTITCRASGNIHIYLAWYQQKQGKSPQLLVYNAKTLADGVPSRFSGSGSGTQYSLKINSLQPEDFGSYYCQHFWSIPWTFGGGTKLEIKRADAAPTVSIFPPSSEQLTSGGASVVCFLNNFYPKDINVKWKIDGSERQNGVLNSWTDQDSKDSTYSMSSTLTLTKDEYERHNSYTCEATHKTSTSPIVKSFNRNEC | – | does not affect the binding of TNF to cell surface receptors | can not directly bind to cell surface | blocks TNF-induced apoptosis | bound TNF the strongest | apoptosis was inhibited; also recorded: blocks TNF-induced apoptosis | necrosis of L929 cells occurred; also recorded: necrosis of L929 cell | QLVVPSE |
